Test results from patent US20230021388A1 (VELOSBIO, published 2023).
Residue numbers refer to the chain shown, from its start. In names and notes the source's numbering stands. Several values for one entry are separate records, joined by “and”; a condition that tells them apart may be missing. Identical values can stand only once.

B1: H1 T32A Ab1 scFv (scFv)
scFv: QVQLQESGPGLVKPSQTLSLTCTVSGYAFAAYNIHWVRQAPGQGLEWMGSFDPYDGGSSYNQKFKDRLTISKDTSKNQVVLTMTNMDPVDTATYYCARGWYYFDYWGHGTLVTVSSGGGGSGGGGSGGGGSADIVMTQTPLSLPVTPGEPASISCRASKSISKYLAWYQQKPGQAPRLLIYSGSTLQSGIPPRFSGSGYGTDFTLTINNIESEDAAYYFCQQHDESPYTFGEGTKVEIKRDYKDDDDKGKPGSGKPGSGKPGSGKPGSYPYDVPDYAS
notes: VH - linker - VL with C-terminal FLAG and HA tags; also called scFv variant H1 T32A; Ab1.1
B2: H1 T32A/L2 T69R Ab1 scFv (scFv)
scFv: B1 scFv with T185R
notes: VH - linker - VL with C-terminal FLAG and HA tags; also called scFv variant H1 T32A+L2 T69R; Ab1.2
B3: Ab1 scFv (scFv)
scFv: B1 scFv with A30T
notes: the pelB leader is not part of the entry; also called parental Ab1 scFv; Ab1 parental construct
B4: Ab1 Fab (Fab, V domains shown)
VH: QVQLQESGPGLVKPSQTLSLTCTVSGYAFTAYNIHWVRQAPGQGLEWMGSFDPYDGGSSYNQKFKDRLTISKDTSKNQVVLTMTNMDPVDTATYYCARGWYYFDYWGHGTLVTVSS
VL: DIVMTQTPLSLPVTPGEPASISCRASKSISKYLAWYQQKPGQAPRLLIYSGSTLQSGIPPRFSGSGYGTDFTLTINNIESEDAAYYFCQQHDESPYTFGEGTKVEIK
notes: Soluble Fab from an M13 phage vector in E. coli: VL + kappa constant region, VH + human CH1 + His and HA tags; also called WT; parental Fab
B5: Ab1 Fab variant H1 T32A (Fab, V domains shown)
VH: B4 VH with T30A
VL: B4 VL
notes: Fab

Legend:
[1] = biological target: T1, recombinant human ROR1 extracellular domain (human, UniProt Q01973 30-406); assay: ELISA: huROR1-ECD coated on the plate, periplasmic scFv in serial dilution, anti-HA-HRP detection; x axis is Log [relative expression], no concentration unit
T1 construct: biotinylated for the filter lifts; also called huROR1-ECD; human ROR1-ECD
T1 sequence (Q01973 30-406 limits assumed): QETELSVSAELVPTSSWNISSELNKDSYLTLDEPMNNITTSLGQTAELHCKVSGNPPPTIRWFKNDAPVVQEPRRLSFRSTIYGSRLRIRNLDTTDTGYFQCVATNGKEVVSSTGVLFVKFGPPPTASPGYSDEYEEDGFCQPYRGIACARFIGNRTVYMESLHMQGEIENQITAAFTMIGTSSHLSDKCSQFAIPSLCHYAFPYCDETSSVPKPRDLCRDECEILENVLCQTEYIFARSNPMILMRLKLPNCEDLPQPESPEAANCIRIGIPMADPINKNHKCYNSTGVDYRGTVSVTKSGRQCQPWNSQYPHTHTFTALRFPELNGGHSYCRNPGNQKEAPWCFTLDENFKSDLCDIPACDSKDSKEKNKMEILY
Experimental: scFv constructs were expressed and isolated from the periplasmic space using the same protocol that was used for Fabs (Example 2). In order to quantitate the relative levels of scFv expression of the three variants, a 96-well Costar-3366 plate was coated with 50 μl/well of 2 μg/mL anti-FLAG-unlabeled (Rockland, cat. #600-401-383) in PBS overnight at 4° C. The plate was washed three times with PBS containing 0.05% Tween 20 (PBS-T) and blocked with 100 μL of 5% M-P. The plate was washed once, then 50 μl/well of sample dilutions was added. Sample dilutions were performed with 5% M-P. The plates were incubated 1 h at 25° C., washed three times with PBS-T, and incubated with 50 μl/well of anti-HA HRP conjugate (Roche, cat. #12013819001), diluted 1,000-fold in 5% M-P for 1 h at 25° C. The plate was washed three times with PBS-T, and developed with 50 μl/well 1-Step Ultra TMB-ELISA (Thermo Scientific, Prod. #34028, Lot #SF2405221). The reaction was terminated by the addition of 2 N H2504 and the A450 was determined using a Spectramax plate reader.
Next, the binding of the isolated scFv variants to huROR1-ECD was assessed by ELISA as described in Example 2. A 96-well Costar-3366 plate was coated with 50 μl/well of 1 μg/mL human ROR-1 (AcroBiosystems, cat. #R01H522Y) in PBS overnight at 4° C. The plate was washed three times with PBS-T and blocked with 100 μL of 5% M-P. The plate was washed once, then 50 μl/well of 2-fold serial dilutions of sample was added. Sample dilutions were performed with 5% M-P. The plates were incubated 1 h at 25° C., washed three times with PBS-T, and incubated with 50 μl/well of anti-HA HRP conjugate (Roche, cat. #12013819001), diluted 1,000-fold in 5% M-P for 1 h at 25° C. […] The reaction was terminated by the addition of 2 N H₂SO₄ and the A450 was determined using a Spectramax plate reader. In order to compare the relative binding strength of the scFv variants, the expression levels as determined using the scFv ELISA described above were normalized to the Ab1 parental construct. […]

human ROR1 on live cells [2] = biological target: T2, human ROR1 on live cells (human, UniProt Q01973 30-937); assay: flow cytometry on live JeKo-1 cells, scFv detected with anti-HA-PE; x axis is Log [relative scFv expression], no concentration unit
T2 construct: ROR1-transfected MEC cells (~56,000 copies/cell) or JeKo-1 cells (~13,000 copies/cell); the cell line is named under assay; also called ROR1-transfected MEC cells; JeKo-1 cells
T2 sequence (Q01973 30-937 limits assumed): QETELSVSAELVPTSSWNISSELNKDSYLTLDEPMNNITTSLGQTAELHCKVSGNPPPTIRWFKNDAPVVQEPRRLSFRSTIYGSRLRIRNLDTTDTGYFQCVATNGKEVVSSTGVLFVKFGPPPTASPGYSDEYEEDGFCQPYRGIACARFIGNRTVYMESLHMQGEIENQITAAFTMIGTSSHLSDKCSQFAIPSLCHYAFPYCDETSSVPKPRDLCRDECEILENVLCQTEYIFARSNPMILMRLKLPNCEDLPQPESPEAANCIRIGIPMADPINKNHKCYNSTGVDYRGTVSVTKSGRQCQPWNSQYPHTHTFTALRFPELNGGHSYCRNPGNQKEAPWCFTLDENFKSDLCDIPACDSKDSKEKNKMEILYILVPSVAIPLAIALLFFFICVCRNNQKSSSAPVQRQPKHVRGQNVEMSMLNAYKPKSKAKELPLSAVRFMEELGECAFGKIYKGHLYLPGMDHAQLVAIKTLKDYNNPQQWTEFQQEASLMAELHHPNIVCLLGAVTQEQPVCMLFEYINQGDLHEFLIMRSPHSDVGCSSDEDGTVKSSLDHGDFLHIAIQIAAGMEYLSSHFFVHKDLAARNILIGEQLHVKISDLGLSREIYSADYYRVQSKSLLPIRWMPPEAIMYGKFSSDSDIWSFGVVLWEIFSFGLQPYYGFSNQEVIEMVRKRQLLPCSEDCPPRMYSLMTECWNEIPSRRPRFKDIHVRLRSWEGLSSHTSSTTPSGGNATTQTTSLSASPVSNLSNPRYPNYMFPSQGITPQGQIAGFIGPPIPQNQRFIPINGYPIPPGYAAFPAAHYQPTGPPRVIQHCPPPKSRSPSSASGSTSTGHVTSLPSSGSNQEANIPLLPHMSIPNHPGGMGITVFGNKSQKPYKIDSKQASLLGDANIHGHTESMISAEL

[3] = biological target: T1, recombinant human ROR1 extracellular …; assay: ELISA, soluble Fab on coated huROR1-ECD
[4] = biological target: T1, recombinant human ROR1 extracellular …; assay: ELISA, soluble Fab on coated huROR1-ECD; remark: listed apart in the source
Experimental: (§1) The previously described filter lift assay provides a visual, qualitative assessment of antigen binding (Example 1). In order to assess the ROR1 binding activity of Ab1 Fab in a more quantitative fashion, an ELISA assay was developed. A 96-well Costar-3366 plate was coated with 50 μL/well of 1 μg/mL human ROR1-ECD (ACROBiosystems, cat. #RO1-H522y) in PBS overnight at 4° C. The plate was rinsed once with PBS-T and blocked with 100 μL/well of 5% M-P for 1 h at 25° C. Fab samples were serially diluted 3-fold using 5% M-P and 50 μL/well was incubated for 1 h at 25° C. The plate was washed three times with PBS-T and 50 μL/well anti-human kappa, and HRP conjugate (Southern Biotech, cat. #2060-05) diluted 10,000-fold in 5% M-P was added for 1 h at 25° C. In certain assays (extended wash format), the plate was placed in large volumes (up to 1 L) of PBS-T and incubated, with mixing, for 2-5 h prior to the addition of anti-human kappa, HRP conjugate. The plate was washed three times with PBS-T, and developed with 50 μL/well 1-Step Ultra TMB-ELISA (Thermo Scientific, cat. #34028). The reaction was terminated by the addition of 2 N H2504 and the A450 was determined using a Spectramax plate reader.

human ROR1 on live cells [5] = biological target: T2, human ROR1 on live cells; assay: flow cytometry on live JeKo-1 cells, Fab detected with anti-HA-PE
Experimental: (§2) ROR1 binding was quantitated using flow cytometry and 2.5E5 ROR1-transfected MEC cells or JeKo-1 cells for each concentration of Fab variant. The cells were placed in 50 μL of PBS with 2% FBS. Next, the cells were diluted with an equal volume of 2× stock of the test Fab variant and the cells and antibody were co-incubated on ice for 20 min. The cells were then washed 3 times with 300 μL of FACS buffer and were resuspended in 100 μL of a 70-fold dilution of anti-HA.11-PE conjugate, clone 16B12 (BioLegend, cat. #901517) and incubated on ice with reduced light for 20 min. Subsequently, the cells were washed 3 times with 300 μL of FACS buffer and fixed with 2% paraformaldehyde for 10 min at 25° C. The cells then were washed 2 times with 300 μL of FACS buffer and analyzed on a Miltenyi MACSQuant Analyzer.

[6] = biological target: T1, recombinant human ROR1 extracellular …; assay: ELISA, soluble Fab on coated huROR1-ECD; WT control beside variant G27N (…, SEQ ID NO: 15)
Experimental: as §1

[7] = biological target: T1, recombinant human ROR1 extracellular …; assay: ELISA, soluble Fab on coated huROR1-ECD; remark: listed apart in the source
[8] = biological target: T1, recombinant human ROR1 extracellular …; assay: ELISA with prolonged wash, soluble Fab on coated huROR1-ECD
Experimental: as §1
(§3) Subsequently, the libraries were screened by capture lift to identify the strongest binding variants. The identity of the variants was determined by DNA sequencing and the relative affinities were characterized using an ELISA (described in Example 2) modified to enable further discrimination between the highest affinity variants. Specifically, following the initial incubation with soluble Fab, the plates were washed for a prolonged time (>1 h) in large volumes of PBS-T. The plates were then developed as described in Example 2.

[9] = biological target: T1, recombinant human ROR1 extracellular …; assay: as above; remark: listed apart in the source
Experimental: as §1, §3

human ROR1 on live cells [10] = biological target: T2, human ROR1 on live cells; assay: flow cytometry on live ROR1-transfected MEC cells, Fab detected with anti-HA-PE
Experimental: as §2
Initially, three anti-ROR1 Fab variants, each differing from the parental antibody by a single amino acid, were characterized for binding to human ROR1 using live ROR1-transfected MEC cells. […] The binding profiles of the variants on live ROR1-transfected MEC cells were consistent with the binding profiles obtained using recombinant huROR1-ECD and an ELISA (see Example 3, FIG. 5).

[11] = biological target: T1, recombinant human ROR1 extracellular …; assay: ELISA with prolonged wash (>1 h in PBS-T): huROR1-ECD coated on the plate, soluble Fab titrated, anti-human kappa-HRP detection
Experimental: as §1, with “The plate was washed three times with PBS-T, and developed with 50 μL/well 1-Step Ultra TMB-ELISA (Thermo Scientific, cat. #34028).” left out
Subsequently, the libraries were screened by capture lift to identify the strongest binding variants. The identity of the variants was determined by DNA sequencing and the relative affinities were characterized using an ELISA (described in Example 2) modified to enable further discrimination between the highest affinity variants. […]

[12] = biological target: T1, recombinant human ROR1 extracellular …; assay: ELISA with prolonged wash, soluble Fab on coated huROR1-ECD; remark: listed apart in the source
Experimental: as §1, §3

Row | Binder | binding result [1] | binding result (human ROR1 on live cells [2]) | EC50 (read off the curve) (human ROR1 on live cells [5]) [nM] | Kd [7] | other results
1 | B1 | binds | binds | – | – | –
2 | B2 | binds | binds | – | – | –
3 | B3 | binds | binds | – | – | –
4 | B4 | – | – | ~10 | 3.2 nM and 6 nM | Kd [3]: 3 nM; Kd [4]: 7 nM; Kd [6]: 3.2 nM
5 | B5 | – | – | ~2 | 1.5 nM | Kd [8]: 3.6 nM and 1.6 nM and 2.7 nM; Kd [9]: 3 nM; fold increase of binding against Ab1 [3]: ~4 fold; EC50 (read off the curve) (human ROR1 on live cells [10]): ~0.05 µg/mL; EC50 (read off the curve) [11]: ~3 nM; Kd [12]: 3 nM and 2.7 nM
